Binding result and Kd data for two molecules are collected here from patent publication US20050059087A1 (Amgen, published 2005).

Test [1] concerns the target EGFrVIII antigen (ELISA antigen of Examples 15, 17 and 21; form not stated) (human, UniProt P00533 298-645, limits assumed). The test can be described thus: binding of variant antibody to EGFRvIII antigen.
Test [2] concerns the target T1, Pep-3, NH2-LEEKKGNYVVTDHG-OH (human).
T1 construct: Free peptide used in Biacore and KinExA (MW 1590 Da)
T1 peptide: H-LEEKKGNYVVTDHG-OH
The test can be described thus: Biacore 2000 SPR, steady-state (equilibrium) binding model, pep-3 analyte. The source says: The first step in these examples involved the immobilization of 5,600 resonance units (RU) to 8,000 RU of each mAb tested to one flow cell (Fc) of a CM5 sensor chip using standard EDC/NHS coupling chemistry. […] Three CM5 sensor chips were used in total to immobilize all mutant mAbs with a unique mAb immobilized to each flow cell. […] Biacore 2000 optical biosensors were used for all studies.
Background: In SPR one partner is held on a chip, and binding of the other changes the refractive index at the surface.

B1: mAb 131 variant, light chain V99F (antibody, V domains shown)
VH: QVQLVESGGGVVQSGRSLRLSCAASGFTFRNYGMHWVRQAPGKGLEWVAVIWYDGSDKYYADSVRGRFTISRDNSKNTLYLQMNSLRAEDTAVYYCARDGYDILTGNPRDFDYWGQGTLVTVSS
VL: DTVMTQTPLSSHVTLGQPASISCRSSQSLVHSDGNTYLSWLQQRPGQPPRLLIYRISRRFSGVPDRFSGSGAGTDFTLEISRVEAEDVGVYYCMQSTHFPWTFGQGTKVEIK
notes: also called V99 changed to F
As for B1, in test [1], the binding result was “no binding”.

B2: 13.1.2 variant L99N-4.1 (antibody, V domains shown)
VH: QVQLVESGGGVVQPGRSLRLSCAASGFTFSSYGMHWVRQAPGKGLEWVAVIWYDGSNKYYVDSVKGRFTISRDNSKNTLYLQMNSLRAEDTAVYYCARDGWQQLAPFDYWGQGTLVTVSS
VL: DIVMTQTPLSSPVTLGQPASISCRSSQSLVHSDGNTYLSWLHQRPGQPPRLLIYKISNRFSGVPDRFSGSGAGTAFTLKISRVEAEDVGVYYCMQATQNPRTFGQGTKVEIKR
notes: also called Leu99Asn; 99Asn
Take B2: in test [2], the dissociation constant (Kd) came out at 1400 nM.

One may read the Kd as the concentration at which binding is half-saturated. Read a low Kd as tighter binding.
